Assay results taken from patent US7943356B2, “Alcohol dehydrogenase for the stereoselective production of hydroxy compounds” (Codexis, Inc., priority 2004, dated 2011).
Where two headings read alike, the source gives them in different places.

Tests used:
ADH T = assay: Relative activities of purified ADH T in the reduction of different substrates; assay type: biochemical, Thermoanaerobacter species
[1] = Storage stability of the isolated ADH T (residual activity); assay type: physicochemical; settings: for Activity Day 5 / Activity Day 10 / Activity Day 20 / Activity Day 40 / Activity Start: storage at 4° C.
Procedure: In spite of its thermal stability, the isolated ADH T cannot be stored for long under standard conditions (50 mM Tris-Cl, pH 7.0). The half-life is only ca. 4 days. By addition of e.g. NaCl, the half-life can be increased to more than 40 days (Table 2).
(§1) The activities were determined by photometric measurement of the decrease in the cofactor. Measurement batch: 50 mM Tris-Cl, pH 7.0 with 10 mM substrate and 0.2 mM NADPH. The measurement batch for ADH-TE also contained 1 mM of MgCl2.
(§2) The decrease in NADPH was followed at 340 nm for one minute after addition of the enzyme. Sufficient enzyme was added for the activity to be between 0.5 and 1.5 U/ml and the measurement volume was 1 ml.
(§3) 1 U corresponds to the quantity of enzyme which converts 1 μmol of substrate per minute.

[2] = Activity of the isolated ADH T at different pH values; assay type: biochemical
Procedure: The activities were determined by photometric measurement of the decrease in the cofactor. […] The measurement batch for ADH-TE also contained 1 mM of MgCl2.
as §2, §3

[3] = Thermal stability of ADH T; assay type: physicochemical; settings: after 12 hrs at 50° C.
Procedure: The thermal stability is also very good. The activity of the ADH T was still at 75% of the starting value even after 12 hrs at 50° C.

[4] = Activity with standard substrate acetone (photometric NADPH decrease); assay type: biochemical; settings: acetone (10 mM); ADH T 1.5 mg/ml, ADH-TE 2.45 mg/ml; ADH-TE batch also 1 mM MgCl2
Procedure: (§4) The comparison of the activity of the ADH T with that of the secondary alcohol dehydrogenase from Thermoanaerobacter ethanolicus 39E (U.S. Pat. No. 5,908,924) with regard to the conversion of diketones is interesting (Table 6).
as §1, §2, §3

[5] = Activity with diketone 2,4-pentanedione (photometric NADPH decrease); assay type: biochemical
Procedure: as §4, §1, §2, §3

[6] = Activity with diketone 2,5-hexanedione (photometric NADPH decrease); assay type: biochemical
Procedure: as §4, §1, §2, §3

[7] = Reduction of 2,5-hexanedione to the diol, conversion and ee/de; assay type: biochemical; settings: after 48 hrs
Excerpt: The ee/de value of 100% signifies absolute enantiomeric and diastereomeric purity of the diols prepared. By means of the invention described here, the ADH T can for the first time be obtained in sufficient quantity to produce enantiomerically pure diols on the kilogram scale.

[8] = Conversion of 2-pentanone with substrate-coupled cofactor regeneration (isopropanol); assay type: biochemical; settings: 200 mM 2-pentanone, 3 U/ml ADH T, 0.05 mM NADP
Excerpt: In fact, it can be shown that the enantioselectivity in the reduction of critical ketones such as 2-pentanone or 2-butanone by substrate-coupled cofactor regeneration with isopropanol is also far better than with the use of enzyme-coupled cofactor regeneration.
Also, the achievable enantiomeric purity of the product depends on the quantity of isopropanol used (Table 9).

[9] = substrate 10 mM, activity with acetone set at 100%, […]
[10] = substrate 10 mM, activity with acetone set at 100%, purified ADH T
[11] = relative to standard substrate acetone (10 mM)

Molecule: CC(=O)c1ccc(Cl)cc1 [p-chloroacetophenone]
- Relative activity (ADH T; [9]): 17%

Molecule: CCC(C)=O [2-butanone]
- Relative activity (ADH T; [9]): 72%

Molecule: CCC(C)C=O (stereo not shown) [2-methylbutyraldehyde]
- Relative activity (ADH T; [10]): 52%

Molecule: CCCCC(C)=O [2-hexanone]
- Relative activity (ADH T; [9]): 30%

Molecule: O=C1CCCCC1=O [1,2-cyclohexanedione]
- Relative activity (ADH T; [10]): 5%

Molecule: CC=O [Acetaldehyde]
- Relative activity (ADH T; [9]): 101%

Molecule: CC(=O)CCCl [4-chloro-2-butanone]
- Relative activity (ADH T; [9]): 66%

Molecule: CCCC(C)=O [2-pentanone]
- Relative activity (ADH T; [10]): 31%

Molecule: CCOC(=O)CC(=O)CCl [Ethyl 4-chloroacetoacetate]
- Relative activity (ADH T; [9]): 45%

Molecule: CCOC(=O)CC(C)=O [Ethyl acetoacetate]
- Relative activity (ADH T; [10]): 22%

Molecule: CC(=O)C(C)=O [Diacetyl]
- Relative activity (ADH T; [10]): 154%

Molecule: C#CC(C)=O [3-butyn-2-one]
- Relative activity (ADH T; [9]): 76%

Molecule: CC(=O)c1ccccn1 [2-acetylpyridine]
- Relative activity (ADH T; [10]): 36%

Molecule: CCCCCCC(C)=O [2-octanone]
- Relative activity (ADH T; [10]): 9%

Molecule: CC(=O)CCO [4-hydroxy-2-butanone]
- Relative activity (ADH T; [9]): 13%

Molecule: CCCCCC(=O)CC [3-octanone]
- Relative activity (ADH T; [10]): 26%

Molecule: CC(=O)CC(C)=O [2,4-pentanedione]
- Relative activity (ADH T; [10]): 77%

Molecule: Monochloroacetone
- Relative activity (ADH T): 71%

Molecule: CCC(=O)C(=O)O [2-oxobutyric acid]
- Relative activity (ADH T; [10]): 28%

Molecule: CC(=O)c1ccccc1 [Acetophenone]
- Relative activity (ADH T; [10]): 28%

Molecule: CC(=O)CCC(C)=O [2,5-hexanedione]
- Relative activity (ADH T; [10]): 74%

Molecule: O=C(CCl)c1ccccc1 [Phenacyl chloride]
- Relative activity (ADH T; [9]): 25%

Molecule: CC(C)=O [Acetone]
- Relative activity (ADH T; [9]): 100%

B1: ADH T: thermally stable, (S)-selective NADP-dependent alcohol dehydrogenase from Thermoanaerobacter species (SEQ ID NO: 2), recombinant (protein)
chain: MKGFAMLSIGKVGWIEVEKPNPGPFDAIVRPLAVAPCSSDIHTVFEGGLGELHNAVLGHEAVGEVVEVGSEVKDFKPGDKVVIPAITPDWRTLDVQRGYHQQSGGMLAGYKFTAQKPGVFAEYIYVNDADMNLAHLPDGISLEAAVMITDMMTTGFHGAELAEIELGATVAVLGIGPVGLMAVAGAKLRGAGRIIAVGSRPVCVDAAKYYGATDIVNYKNGPIDSQIMDLTKGKGVDAAIIAGGNVDIMATAVKIVKPGGTIANVNYFGEGDVLPVPRLEWGCGMAHKAIKGGLCPGGRLRMERLIDLVFYKRVDPSKLVTHVFQGFDNIEKALMLMKDKPKDLIKPVVILA
modifications: Thermoanaerobacter species
- Activity Day 5 ([1]; 0.0 M NaCl): 24 U/ml
- Activity Day 10 ([1]; 0.0 M NaCl): 6 U/ml
- Activity Day 20 ([1]; 0.0 M NaCl): 0 U/ml
- Activity Day 40 ([1]; 0.0 M NaCl): 0 U/ml
- Activity Start ([1]; 0.0 M NaCl): 105 U/ml
- Activity Day 5 ([1]; 0.2 M NaCl): 101 U/ml
- Activity Day 10 ([1]; 0.2 M NaCl): 7 U/ml
- Activity Day 20 ([1]; 0.2 M NaCl): 0 U/ml
- Activity Day 40 ([1]; 0.2 M NaCl): 0 U/ml
- Activity Start ([1]; 0.2 M NaCl): 105 U/ml
- Activity Day 5 ([1]; 0.5 M NaCl): 113 U/ml
- Activity Day 10 ([1]; 0.5 M NaCl): 86 U/ml
- Activity Day 20 ([1]; 0.5 M NaCl): 0 U/ml
- Activity Day 40 ([1]; 0.5 M NaCl): 0 U/ml
- Activity Start ([1]; 0.5 M NaCl): 105 U/ml
- Activity Day 5 ([1]; 1.0 M NaCl): 115 U/ml
- Activity Day 10 ([1]; 1.0 M NaCl): 119 U/ml
- Activity Day 40 ([1]; 1.0 M NaCl): 78 U/ml
- Activity Start ([1]; 1.0 M NaCl): 105 U/ml
- duration of high stability on storage ([1]; storage at −20° C. with addition of glycerine, in particular 50%): at least 3 months
- effect of addition of zinc ions to the prepared enzyme ([1]; zinc ions added to prepared enzyme): leads rapidly to its inactivation
- pH optimum [2]: 7.0
- Measured activity ([2]; pH 5.0): 53 U/ml
- Measured activity ([2]; pH 6.0): 134 U/ml
- Relative activity ([2]; pH 6.5): 66%
- Measured activity ([2]; pH 7.0): 192 U/ml
- Relative activity ([2]; pH 7.0): 100%
- Relative activity ([2]; pH 7.5): 74%
- Measured activity ([2]; pH 8.0): 146 U/ml
- Measured activity ([2]; pH 9.0): 13 U/ml
- activity remaining, of the starting value [3]: 75%
- activity with standard substrate [4]: 106 U/ml
- spec. activity [5]: 55.4 U/mg
- rel. activity [5, 11]: 77%
- spec. activity [6]: 52.7 U/mg
- rel. activity [6, 11]: 74%
- Conversion to diol ([7]; enzyme-coupled): 82.4%
- ee/de for the (S,S) enantiomer ([7]; enzyme-coupled): 100%
- Conversion to diol ([7]; substrate-coupled): 10.6%
- ee/de for the (S,S) enantiomer ([7]; substrate-coupled): 100%
- Conversion ([8]; 100 mM Tris-Cl pH 7.0, 20% isopropanol, 24 hours): 85.3%
- Conversion ([8]; 100 mM Tris-Cl pH 7.0, 20% isopropanol, 48 hours): 86.5%
- Conversion ([8]; 100 mM Tris-Cl pH 7.0, 50% isopropanol, 24 hours): 93.8%
- Conversion ([8]; 100 mM Tris-Cl pH 7.0, 50% isopropanol, 48 hours): 94.2%
